Consider six molecules from patent US8377701B2, “Specific ligands to sortilin” (H. Lundbeck A/S, priority 2008, dated 2013).

For assay [1], the target named is T1, sSortilin (Homo sapiens, UniProt Q99523).
T1 construct: Soluble Sortilin (sSortilin); His6 (C); made in house; host or cells: CHO-K1
T1 sequence (Q99523 78-755 limits assumed): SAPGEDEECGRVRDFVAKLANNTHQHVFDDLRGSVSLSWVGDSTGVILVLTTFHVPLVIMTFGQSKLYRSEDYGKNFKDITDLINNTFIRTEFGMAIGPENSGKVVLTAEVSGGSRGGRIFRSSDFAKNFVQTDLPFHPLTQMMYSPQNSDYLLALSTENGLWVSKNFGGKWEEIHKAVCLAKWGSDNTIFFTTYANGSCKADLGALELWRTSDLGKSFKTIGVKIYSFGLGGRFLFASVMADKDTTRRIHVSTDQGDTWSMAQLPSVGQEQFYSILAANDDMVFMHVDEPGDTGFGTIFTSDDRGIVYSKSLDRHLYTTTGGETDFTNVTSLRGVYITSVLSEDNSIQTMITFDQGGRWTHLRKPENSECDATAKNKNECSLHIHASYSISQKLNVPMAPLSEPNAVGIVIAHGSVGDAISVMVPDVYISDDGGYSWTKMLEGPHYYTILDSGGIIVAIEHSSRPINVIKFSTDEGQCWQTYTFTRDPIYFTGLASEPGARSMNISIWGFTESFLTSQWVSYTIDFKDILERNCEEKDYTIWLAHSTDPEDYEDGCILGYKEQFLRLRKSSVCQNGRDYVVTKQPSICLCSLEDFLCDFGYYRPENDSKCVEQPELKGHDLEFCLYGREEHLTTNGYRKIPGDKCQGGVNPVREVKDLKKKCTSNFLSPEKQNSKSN
The assay can be described thus: Surface plasmon resonance: ligand binding to immobilized sSortilin in absence or presence of Neurotensin derived peptides. Particulars: for inhibition of binding of Sort-pro (GST-Sort-pro) to sSortilin: FIG. 3A+B. How it is done:
(§1) Surface plasmon resonance (SPR) measurements were performed on a BIAcore 2000 instrument (Biacore Sweden) equipped with CM5 sensor chips maintained at 20° C. A continuous flow of HBS buffer (10 mM HEPES pH 7.4, 3.4 mM EDTA, 150 mM NaCl, 0.005% surfactant P20) passing over the sensor surface was maintained at 5 μl/min. […] A sortilin solution (320 μl, 5 μg/ml in 10 mM sodium acetate pH 4.0) was then injected over flow cells 1 and 2 at a flow rate of 15 μl/min. Remaining binding sites in all three flow cells were blocked by injection (5 μl/min) of 70 μl of 1 M ethanolamine pH 8.5. […] Screening of the samples was performed by injecting aliquots of 50 μl, at concentrations of 0.1-8 μM, through all flow cells with a flow rate of 5 μl/min. Unless otherwise stated, the samples were dissolved in 10 mM HEPES pH 7.4, 150 mM NaCl, 1.5 mM CaCl2, 1 mM EGTA, 0.005% surfactant P20. Sample buffer was also used as running buffer. The BIAcore response is expressed in relative response units (RU), i.e. the difference in response between the immobilized protein flow cell and the corresponding control flow cell (activated and blocked but without protein). Regeneration of the sensor chip after each cycle of analysis was performed by injecting 20 μl of 10 mM glycine/HCl pH 4.0, 500 mM NaCl, 20 mM EDTA and 0.005% surfactant P20. For calciumfree conditions, HBS containing 20 mM EDTA was used as sample as well as running buffer.
Background: Surface plasmon resonance follows binding to a sensor surface in real time, without labels.

The next assay concerns the target T2, S316E mutant sSortilin (Homo sapiens, UniProt Q99523, S316E).
T2 construct: His6 (C); made in house; host or cells: CHO cells
T2 sequence (Q99523 78-755 S316E): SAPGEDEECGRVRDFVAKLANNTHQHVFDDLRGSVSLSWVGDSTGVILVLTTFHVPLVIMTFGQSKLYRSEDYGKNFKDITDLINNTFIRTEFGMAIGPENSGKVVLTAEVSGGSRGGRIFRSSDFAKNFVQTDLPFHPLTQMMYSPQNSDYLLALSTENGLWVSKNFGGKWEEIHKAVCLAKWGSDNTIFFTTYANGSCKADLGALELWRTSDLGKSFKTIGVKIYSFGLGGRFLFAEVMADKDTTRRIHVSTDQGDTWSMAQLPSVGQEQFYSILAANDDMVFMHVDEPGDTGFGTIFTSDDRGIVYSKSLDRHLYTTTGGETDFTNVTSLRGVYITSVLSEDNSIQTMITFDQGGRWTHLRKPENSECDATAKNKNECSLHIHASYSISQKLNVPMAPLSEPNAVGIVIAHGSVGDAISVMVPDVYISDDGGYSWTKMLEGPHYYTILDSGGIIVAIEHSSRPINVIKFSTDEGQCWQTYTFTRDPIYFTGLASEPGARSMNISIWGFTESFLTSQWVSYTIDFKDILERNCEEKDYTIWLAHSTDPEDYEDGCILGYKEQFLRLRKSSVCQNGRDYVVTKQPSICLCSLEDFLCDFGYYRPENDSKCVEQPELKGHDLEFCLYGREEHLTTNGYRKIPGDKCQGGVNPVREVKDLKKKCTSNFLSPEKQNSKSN
Briefly: Surface plasmon resonance: ligand binding to purified sSortilin S316E mutant. Particulars: compared with wtSortilin. Here is the method: as §1

The target of assay [2] is T1, sSortilin. The assay can be described thus: Surface plasmon resonance affinity of NGFpro and icosapeptides for immobilized sSortilin. In kind it is binding. The conditions noted are these: BIAcore 3000, 20° C., read-out: dissociation constant (Kd). How it is done: All measurements were performed on a BIAcore 3000 instrument (Biacore Sweden) maintained at 20° C. A continuous flow of buffer F (10 mM HEPES pH=7.4, 150 mM (NH4)2SO4, 1.5 mM CaCl2, 1.5 mM EGTA and 0.005% Tween-20) was passed over the CM5 chip sensor surface at 5 μl/min. The affinity of NGFpro and the peptides for immobilized sSortilin were determined. The dissociation constant (Kd) for NGFpro was ˜10 nM and for peptide-4 (SEQ ID NO:51) ˜5 μM. The ability of the peptides to compete with NGFpro for binding to sSortilin was tested as well.

A word on the Kd: it is the concentration at which binding is half-saturated.

Where no end group is shown, it is not given here.

In the case of “Arg8-Arg-Pro-Tyr-Ile-Leu13-NH2 [reference compound]”, the “inhibition of binding of Sort-pro (GST-Sort-pro) to sSortilin” value with sSortilin [1] is “fails to inhibit”.
Regarding “BDNF: Mature BDNF, SEQ ID NO. 7 residues 128 to 246, purchased from R&D Systems”, the “binding to S316E mutant” value with S316E mutant sSortilin is listed as “affinities similar to that of wtSortilin”.
As to ITVDPRLFKKRRLRSPRVLF-NH2 [peptide-4], the Kd on sSortilin [2] was about 5 µM.
As for “Sort-pro: Sortilin's own propeptide, residues 34-77 of SEQ ID NO:1, fused to GST (QDRLDAPPPPAAPLPRWSGPIGVSWGLRAAAAGGAFPRGGRWRR; also: fused to GST)”, in the assay with S316E mutant sSortilin, the “binding to S316E mutant” value is listed as “no binding”.
As for Tyr-Ile-Leu [YIL], the “inhibition of binding of Sort-pro (GST-Sort-pro) to sSortilin” value in the assay with sSortilin [1] was “full inhibition”. Moreover, the “inhibition of binding of the prodomain of NGF to sSortilin” value with sSortilin [1] (FIG. 3C, not as efficiently as full length NT) is given as “hampers binding”. Further, in the assay with sSortilin [1] (FIG. 3D, not as efficiently as full length NT), the “inhibition of binding of RAP to sSortilin” value is reported as “hampers binding”. The “affinity for Sortilin” value with sSortilin [1] (summary statement) is “high affinity”.

B1: NGFpro: propeptide of Nerve Growth Factor, residues 19-121 of SEQ ID NO:6 (protein)
chain: EPHSESNVPAGHTIPQVHWTKLQHSLDTALRRARSAPAAAIAARVAGQTRNITVDPRLFKKRRLRSPRVLFSTQPPREAADTQDLDFEVGGAAPFNRTHRSKR
modifications: left off: a dimerising Fc or GST
As for B1, in the assay with S316E mutant sSortilin, the “binding to S316E mutant” value was “affinities similar to that of wtSortilin”.
